Paper PMC10709637, “Phospholipids are imported into mitochondria by VDAC, a dimeric beta barrel scramblase” (Nature Communications, 2023)

How the values were obtained:
[1] = biological target: T1, human VDAC2 (Voltage Dependent Anion Channel 2), N-terminal hexahistidine tagged (human), P45880; assay: vesicle occupancy statistics (Poisson analysis of the dithionite channel assay); different amounts of protein reconstituted into a fixed quantity of LUVs; fraction of vesicles with a channel against PPR*, one-phase exponential fit; MW 31 kDa, vesicle diameter 150 nm; settings: remark: other sources report otherwise
T1 chain: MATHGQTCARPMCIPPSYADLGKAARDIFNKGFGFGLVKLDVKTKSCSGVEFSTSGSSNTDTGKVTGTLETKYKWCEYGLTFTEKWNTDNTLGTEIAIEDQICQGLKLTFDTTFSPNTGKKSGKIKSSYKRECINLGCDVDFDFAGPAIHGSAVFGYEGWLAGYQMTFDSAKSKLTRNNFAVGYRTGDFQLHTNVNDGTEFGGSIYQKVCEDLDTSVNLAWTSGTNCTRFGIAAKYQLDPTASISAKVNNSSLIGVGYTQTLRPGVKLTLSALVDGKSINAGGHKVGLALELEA

[2] = biological target: T2, C-terminal Twin-Strep-tagged yeast VDAC (Por1-TS) (S. cerevisiae), P04840; assay: cross-linking; EGS cross-linking after reconstitution into LUVs (POPC/POPG) in 10 mM MOPS/KOH pH 7.0, 100 mM KCl; 16x mole excess of EGS, 20 °C, 40 min; SDS-PAGE immunoblot (anti-His for human VDAC, anti-VDAC1/Porin for yeast porin); settings: remark: other sources report otherwise
T2 chain: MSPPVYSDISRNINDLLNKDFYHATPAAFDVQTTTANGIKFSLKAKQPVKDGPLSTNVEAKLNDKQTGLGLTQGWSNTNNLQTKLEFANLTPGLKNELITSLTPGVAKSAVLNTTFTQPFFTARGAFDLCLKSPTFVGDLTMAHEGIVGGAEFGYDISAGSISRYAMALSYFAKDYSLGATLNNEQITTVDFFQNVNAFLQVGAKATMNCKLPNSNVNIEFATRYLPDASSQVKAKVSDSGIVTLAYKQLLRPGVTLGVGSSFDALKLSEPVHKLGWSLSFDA

[3] = biological target: the molecule itself; assay: as above

B1: human VDAC2 (Voltage Dependent Anion Channel 2), N-terminal hexahistidine tagged, P45880 1-294 (natural protein)
chain: T1 chain
- stoichiometry N [1]: 10

B2: C-terminal Twin-Strep-tagged yeast VDAC (Por1-TS), P04840 1-283 (natural protein)
chain: T2 chain
- stoichiometry N [2]: 2

B3: human VDAC1 pentamutant VDAC1-5V (T60V, Y62V, E73V, T83V, S101V), N-terminal hexahistidine tagged (natural protein, UniProt P21796 1-283, looked up)
chain: MAVPPTYADLGKSARDVFTKGYGFGLIKLDLKTKSENGLEFTSSGSANTETTKVTGSLEVKVRWTEYGLTFTVKWNTDNTLGVEITVEDQLARGLKLTFDVSFSPNTGKKNAKIKTGYKREHINLGCDMDFDIAGPSIRGALVLGYEGWLAGYQMNFETAKSRVTQSNFAVGYKTDEFQLHTNVNDGTEFGGSIYQKVNKKLETAVNLAWTAGNSNTRFGIAAKYQIDPDACFSAKVNNSSLIGLGYTQTLKPGIKLTLSALLDGKNVNAGGHKLGLGLEFQA
notes: human VDAC1 with five substitutions to valine; pCold vector
- binding result [3]: binds
